# Experimental data reported in the supplement of paper PMC11908140.
# B1: library; numbered along this chain (parent)
# chain: MRKPRAAVGSGHRKQAASQEGRQKHAKNNSQAKPSACDGLARQPEEVVLQASVSSYHLFRDVAEVTAFRGSLLSWYDQEKRDLPWRRRAEDEMDLDRRAYAVWVSEVMLQQTQVATVINYYTGWMQKWPTLQDLASASLEEVNQLWAGLGYYSRGRRLQEGARKVVEELGGHMPRTAETLQQLLPGVGRYTAGAIASIAFGQATGVVDGNVARVLCRVRAIGADPSSTLVSQQLWGLAQQLVDPARPGDFNQAAMELGATVCTPQRPLCSQCPVESLCRARQRVEQEQLLASGSLSGSPDVEECAPNTGQCHLCLPPSEPWDQTLGVVNFPRKASRKPPREESSATCVLEQPGALGAQILLVQRPNSGLLAGLWEFPSVTWEPSEQLQRKALLQELQRWAGPLPATHLRHLGEVVHTFSHIKLTYQVYGLALEGQTPVTTVPPGARWLTQEEFHTAAVSTAMKKVFRVYQGQQPGTCMGSKRSQVSSPCSRKKPRMGQQVLDNFFRSHISTDAHSLNSAAQ
# Variants of: B1
# Experiment: 8OG:A repair function score (normalized; synonymous = 0, nonsense = -1) (normalized log-likelihood score); higher = more repair activity (WT-like)
# Conditions: with 8OG:A DNA repair reporter (GFP) in HEK-293 MUTYH KO cells
# Procedure, shortened: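 GFP+ (repair) and GFP− bins of viable mCherry+ cells were collected at 72 h from MUTYH knockout HEK-293 cells bearing lentiviral MUTYH cDNA NNN codon-scan libraries in 10 pg/ml doxycycline, co-transfected with an 8OG:A GFP repair reporter and mCherry. Tile amplicons were sequenced, and per-tile Rosace fitness scores were normalized to a repair function score anchored on synonymous and nonsense distributions. Synonymous medians were set to 0 and nonsense to -1, with variants under 300 counts per million at the start removed.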
# 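Note: cells sorted at 72 h after reporter transfection.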
row,Variant,8OG:A repair function score
1,MRKPRAAVGSGHRKQAASQEGRQKHAKNNSQAKPSACDGLARQPEEVVLQASVSSYHLFRDVAEVTAFRGSLLSWYDQEKRDLPWRRRAEDEMDLDRRAYAVWVSEVMLQQTQVATVINYYTGWMQKWPTLQDLASASLEEVNQLWAGLGYYSRGRRLQEGARKVVEELGGHMPRTAETLQQLLPGVGRYTAGAIASIAFGQATGVVDGNVARVLCRVRAIGADPSSTLVSQQLWGLAQQLVDPARPGDFNQAAMELGATVCTPQRPLCSQCPVESLCRARQRVEQEQLLASGSLSGSPDVEECAPITGQCHLCLPPSEPWDQTLGVVNFPRKASRKPPREESSATCVLEQPGALGAQILLVQRPNSGLLAGLWEFPSVTWEPSEQLQRKALLQELQRWAGPLPATHLRHLGEVVHTFSHIKLTYQVYGLALEGQTPVTTVPPGARWLTQEEFHTAAVSTAMKKVFRVYQGQQPGTCMGSKRSQVSSPCSRKKPRMGQQVLDNFFRSHISTDAHSLNSAAQ [N307I],-0.0284
2,MRKPRAAVGSGHRKQAASQEGRQKHAKNNSQAKPSACDGLARQPEEVVLQASVSSYHLFRDVAEVTAFRGSLLSWYDQEKRDLPWRRRAEDEMDLDRRAYAVWVSEVMLQQTQVATVINYYTGWMQKWPTLQDLASASLEEVNQLWAGLGYYSRGRRLQEGARKVVEELGGHMPRTAETLQQLLPGVGRYTAGAIASIAFGQATGVVDGNVARVLCRVRAIGADPSSTLVSQQLWGLAQQLVDPARPGDFNQAAMELGATVCTPQRPLCSQCPVESLCRARQRVEQEQLLASGSLSGSPDVEECAPNTGQCHLCLPPSEKWDQTLGVVNFPRKASRKPPREESSATCVLEQPGALGAQILLVQRPNSGLLAGLWEFPSVTWEPSEQLQRKALLQELQRWAGPLPATHLRHLGEVVHTFSHIKLTYQVYGLALEGQTPVTTVPPGARWLTQEEFHTAAVSTAMKKVFRVYQGQQPGTCMGSKRSQVSSPCSRKKPRMGQQVLDNFFRSHISTDAHSLNSAAQ [P320K],-0.1
3,MRKPRAAVGSGHRKQAASQEGRQKHAKNNSQAKPSACDGLARQPEEVVLQASVSSYHLFRDVAEVTAFRGSLLSWYDQEKRDLPWRRRAEDEMDLDRRAYAVWVSEVMLQQTQVATVINYYTGWMQKWPTLQDLASASLEEVNALWAGLGYYSRGRRLQEGARKVVEELGGHMPRTAETLQQLLPGVGRYTAGAIASIAFGQATGVVDGNVARVLCRVRAIGADPSSTLVSQQLWGLAQQLVDPARPGDFNQAAMELGATVCTPQRPLCSQCPVESLCRARQRVEQEQLLASGSLSGSPDVEECAPNTGQCHLCLPPSEPWDQTLGVVNFPRKASRKPPREESSATCVLEQPGALGAQILLVQRPNSGLLAGLWEFPSVTWEPSEQLQRKALLQELQRWAGPLPATHLRHLGEVVHTFSHIKLTYQVYGLALEGQTPVTTVPPGARWLTQEEFHTAAVSTAMKKVFRVYQGQQPGTCMGSKRSQVSSPCSRKKPRMGQQVLDNFFRSHISTDAHSLNSAAQ [Q144A],-0.134
4,MRKPRAAVGSGHRKQAASQEGRQKHAKNNSQAKPSACDGLARQPEEVVLQASVSSYHLFRDVAEVTAFRGSLLSWYDQEKRDLPWRRRAEDEMDLDRRAYAVWVSEVMLQQTQVATVINYYTGWMQKWPTLQDLASASLEEVNQLWAGLGYYSRGRRLQEGARKVVEELGGHMPRTAETLQQLLPGVGRYTAGAIASIAFGQATGVVDGNVARVLCRVRAIGADPSSTLVSQQLWGLAQQLVDPARPGDFNQAAMELGATVCTPQRPLCIQCPVESLCRARQRVEQEQLLASGSLSGSPDVEECAPNTGQCHLCLPPSEPWDQTLGVVNFPRKASRKPPREESSATCVLEQPGALGAQILLVQRPNSGLLAGLWEFPSVTWEPSEQLQRKALLQELQRWAGPLPATHLRHLGEVVHTFSHIKLTYQVYGLALEGQTPVTTVPPGARWLTQEEFHTAAVSTAMKKVFRVYQGQQPGTCMGSKRSQVSSPCSRKKPRMGQQVLDNFFRSHISTDAHSLNSAAQ [S270I],-0.0239
5,MRKPRAAVGSGHRKQAASQEGRQKHAKNNSQAKPSACDGLARQPEEVVLQASVSSYHLFRDVAEVTAFRGSLLSWYDQEKRDLPWRRRAEDEMDLDRRAYAVWVSEVMLQQTQVATVINYQTGWMQKWPTLQDLASASLEEVNQLWAGLGYYSRGRRLQEGARKVVEELGGHMPRTAETLQQLLPGVGRYTAGAIASIAFGQATGVVDGNVARVLCRVRAIGADPSSTLVSQQLWGLAQQLVDPARPGDFNQAAMELGATVCTPQRPLCSQCPVESLCRARQRVEQEQLLASGSLSGSPDVEECAPNTGQCHLCLPPSEPWDQTLGVVNFPRKASRKPPREESSATCVLEQPGALGAQILLVQRPNSGLLAGLWEFPSVTWEPSEQLQRKALLQELQRWAGPLPATHLRHLGEVVHTFSHIKLTYQVYGLALEGQTPVTTVPPGARWLTQEEFHTAAVSTAMKKVFRVYQGQQPGTCMGSKRSQVSSPCSRKKPRMGQQVLDNFFRSHISTDAHSLNSAAQ [Y121Q],-0.765
6,MRKPRAAVGSGHRKQAASQEGRQKHAKNNSQAKPSACDGLARQPEEVVLQASVSSYHLFRDVAEVTAFRGSLLSWYDQEKRDLPWRRRAEDEMDLDRRAYAVWVSEVMLQQTQVATVINYYTGWMQKWPTLQDLASASLEEVNQLWAGLGYYSRGRRLQEGARKVVEELGGHMPRTAETLQQLLPGVGRYTAGAIASIAFGQATGVVDGNVARVLCRVRAIGADPSSTLVSQQLWGLAQQLVDPARPGDFNQAAMELGATVCTPQRPLCSQCPVESLCRARQRVEQEQLLASGSLSGSPDVEECAPNTGQCHLCLPPSEPWDQTWGVVNFPRKASRKPPREESSATCVLEQPGALGAQILLVQRPNSGLLAGLWEFPSVTWEPSEQLQRKALLQELQRWAGPLPATHLRHLGEVVHTFSHIKLTYQVYGLALEGQTPVTTVPPGARWLTQEEFHTAAVSTAMKKVFRVYQGQQPGTCMGSKRSQVSSPCSRKKPRMGQQVLDNFFRSHISTDAHSLNSAAQ [L325W],-0.0969
7,MRKPRAAVGSGHRKQAASQEGRQKHAKNNSQAKPSACDGLARQPEEVVLQASVSSYHLFRDVAEVTAFRGSLLSWYDQEKRDLPWRRRAEDEMDLDRRAYAVWVSEVMLQQTQVATVINYYTGWMQKWPTLQDLASASLEEVNQLWAGLGYYSRGRRLQEGARKVVEELGGHMPRTAETLQQLLPGVGRYTAGAIASIAFGQATGVVDGNVARVLCRVRAIGADPSSTLVSQQLWGLAQQLVDPARPGDFNQAAMELGATVCTPQRPLCSQCPVESLCRARQRVEQEQLLASGSLSGSPDVEECAPNTGQCHLCLPPSEPWDQTLGVVNFPRKASRKPPREESSATCVLEQPGALGAQILLVQRPNSGLLAGLWEFPSVTWEPSEQLQRKALLQELQRWAGPLPATHLYHLGEVVHTFSHIKLTYQVYGLALEGQTPVTTVPPGARWLTQEEFHTAAVSTAMKKVFRVYQGQQPGTCMGSKRSQVSSPCSRKKPRMGQQVLDNFFRSHISTDAHSLNSAAQ [R409Y],-0.0918
8,MRKPRAAVGSGHRKQAASQEGRQKHAKNNSQAKPSACDGLARQPEEVVLQASVSSYHLFRDVAEVTAFRGSLLSWYDQEKRDLPWRRRAEDEMDLDRRAYAVWVSEVMLQQTQVATVINYYTGWMQKWPTLQDLASASLEEVNQLWAGLGYYSRGRREQEGARKVVEELGGHMPRTAETLQQLLPGVGRYTAGAIASIAFGQATGVVDGNVARVLCRVRAIGADPSSTLVSQQLWGLAQQLVDPARPGDFNQAAMELGATVCTPQRPLCSQCPVESLCRARQRVEQEQLLASGSLSGSPDVEECAPNTGQCHLCLPPSEPWDQTLGVVNFPRKASRKPPREESSATCVLEQPGALGAQILLVQRPNSGLLAGLWEFPSVTWEPSEQLQRKALLQELQRWAGPLPATHLRHLGEVVHTFSHIKLTYQVYGLALEGQTPVTTVPPGARWLTQEEFHTAAVSTAMKKVFRVYQGQQPGTCMGSKRSQVSSPCSRKKPRMGQQVLDNFFRSHISTDAHSLNSAAQ [L158E],-1.05
9,MRKPRAAVGSGHRKQAASQEGRQKHAKNNSQAKPSACDGLARQPEEVVLQASVSSYHLFRDVAEVTAFRGSLLSWYDQEKRDLPWRRRAEDEMDLDRRAYAVWVSEVMLQQTQVATVINYYTGWMQKWPTLQDLASASLEEVNQLWAGLGYYSRGRRLQEGARKVVEELGGHMPRTAETLQQLLPGVGRYTNGAIASIAFGQATGVVDGNVARVLCRVRAIGADPSSTLVSQQLWGLAQQLVDPARPGDFNQAAMELGATVCTPQRPLCSQCPVESLCRARQRVEQEQLLASGSLSGSPDVEECAPNTGQCHLCLPPSEPWDQTLGVVNFPRKASRKPPREESSATCVLEQPGALGAQILLVQRPNSGLLAGLWEFPSVTWEPSEQLQRKALLQELQRWAGPLPATHLRHLGEVVHTFSHIKLTYQVYGLALEGQTPVTTVPPGARWLTQEEFHTAAVSTAMKKVFRVYQGQQPGTCMGSKRSQVSSPCSRKKPRMGQQVLDNFFRSHISTDAHSLNSAAQ [A192N],-0.876
10,MRKPRAAVGSGHRKQAASQEGRQKHAKNNSQAKPSACDGLARQPEEVVLQASVSSYHLFRDVAEVTAFRGSLLSWYDQEKRDLPWRRRAEDEMDLDRRAYAVWVSEVMLQQTQVATVINYYTGWMQKWPTLQDLASASLEEVNQLWAGLGYYSRGRRLQEGARKVVEELGGHMPRTAETLQQLLPGVGRYTAGAIASIAFVQATGVVDGNVARVLCRVRAIGADPSSTLVSQQLWGLAQQLVDPARPGDFNQAAMELGATVCTPQRPLCSQCPVESLCRARQRVEQEQLLASGSLSGSPDVEECAPNTGQCHLCLPPSEPWDQTLGVVNFPRKASRKPPREESSATCVLEQPGALGAQILLVQRPNSGLLAGLWEFPSVTWEPSEQLQRKALLQELQRWAGPLPATHLRHLGEVVHTFSHIKLTYQVYGLALEGQTPVTTVPPGARWLTQEEFHTAAVSTAMKKVFRVYQGQQPGTCMGSKRSQVSSPCSRKKPRMGQQVLDNFFRSHISTDAHSLNSAAQ [G201V],-0.331
11,MRKPRAAVGSGHRKQAASQEGRQKHAKNNSQAKPSACDGLARQPEEVVLQASVSSYHLFRDVAEVTAFRGSLLSWYDQEKRDLPWRRRAEDEMDLDRRAYAVWVSEVMLQQTQVATVINYYTGWMQKWPTLQDLASASLEEVNQLWAGLGYYSRGRRLQEGARKVVEELGGHMPRTAETLQQLLPGVGRYTAGAIASIAFGQATGVVDGNVARVLCRVRAIGADPSSTLVSQQLWGLAQQLVDPARPGDFNQAAMELGATVCTPQRPLCSQCPVESLCRARQRVEQEQLLASGSLSGSPDVEECAPNTGQCHLCLPPSEPWDQTLGVVNFPRKASRKPPREESSATCVLEQPGALGAQILLVQRPNSGLLAGLWEFPSVTWEPSEQLQRKALLQELQRWAGPLPATHLRHLGEVVHTFSHIKLTYQVYGLALEGQTPVTTVPPGARWLTQEEFHTAAVSTAMKKVFRVYQGQQPGTCMGSKRSQVSSPCSRKKPRMSQQVLDNFFRSHISTDAHSLNSAAQ [G497S],-0.0201
12,MRKPRAAVGSGHRKQAASQEGRQKHAKNNSQAKPSACDGLARQPEEVVLQASVSSYHLFRDVAEVTAFRGSLLSWDDQEKRDLPWRRRAEDEMDLDRRAYAVWVSEVMLQQTQVATVINYYTGWMQKWPTLQDLASASLEEVNQLWAGLGYYSRGRRLQEGARKVVEELGGHMPRTAETLQQLLPGVGRYTAGAIASIAFGQATGVVDGNVARVLCRVRAIGADPSSTLVSQQLWGLAQQLVDPARPGDFNQAAMELGATVCTPQRPLCSQCPVESLCRARQRVEQEQLLASGSLSGSPDVEECAPNTGQCHLCLPPSEPWDQTLGVVNFPRKASRKPPREESSATCVLEQPGALGAQILLVQRPNSGLLAGLWEFPSVTWEPSEQLQRKALLQELQRWAGPLPATHLRHLGEVVHTFSHIKLTYQVYGLALEGQTPVTTVPPGARWLTQEEFHTAAVSTAMKKVFRVYQGQQPGTCMGSKRSQVSSPCSRKKPRMGQQVLDNFFRSHISTDAHSLNSAAQ [Y76D],-1.25
